According to patent publication JP2023550785A (dated 2023):

Key:
[1] = biological target: T1, HCoV-HKU1 prefusion-stabilized spike (S) protein / S ectodomain trimer (human coronavirus HKU1, UniProt Q5MQD0 13-1300)
T1 sequence: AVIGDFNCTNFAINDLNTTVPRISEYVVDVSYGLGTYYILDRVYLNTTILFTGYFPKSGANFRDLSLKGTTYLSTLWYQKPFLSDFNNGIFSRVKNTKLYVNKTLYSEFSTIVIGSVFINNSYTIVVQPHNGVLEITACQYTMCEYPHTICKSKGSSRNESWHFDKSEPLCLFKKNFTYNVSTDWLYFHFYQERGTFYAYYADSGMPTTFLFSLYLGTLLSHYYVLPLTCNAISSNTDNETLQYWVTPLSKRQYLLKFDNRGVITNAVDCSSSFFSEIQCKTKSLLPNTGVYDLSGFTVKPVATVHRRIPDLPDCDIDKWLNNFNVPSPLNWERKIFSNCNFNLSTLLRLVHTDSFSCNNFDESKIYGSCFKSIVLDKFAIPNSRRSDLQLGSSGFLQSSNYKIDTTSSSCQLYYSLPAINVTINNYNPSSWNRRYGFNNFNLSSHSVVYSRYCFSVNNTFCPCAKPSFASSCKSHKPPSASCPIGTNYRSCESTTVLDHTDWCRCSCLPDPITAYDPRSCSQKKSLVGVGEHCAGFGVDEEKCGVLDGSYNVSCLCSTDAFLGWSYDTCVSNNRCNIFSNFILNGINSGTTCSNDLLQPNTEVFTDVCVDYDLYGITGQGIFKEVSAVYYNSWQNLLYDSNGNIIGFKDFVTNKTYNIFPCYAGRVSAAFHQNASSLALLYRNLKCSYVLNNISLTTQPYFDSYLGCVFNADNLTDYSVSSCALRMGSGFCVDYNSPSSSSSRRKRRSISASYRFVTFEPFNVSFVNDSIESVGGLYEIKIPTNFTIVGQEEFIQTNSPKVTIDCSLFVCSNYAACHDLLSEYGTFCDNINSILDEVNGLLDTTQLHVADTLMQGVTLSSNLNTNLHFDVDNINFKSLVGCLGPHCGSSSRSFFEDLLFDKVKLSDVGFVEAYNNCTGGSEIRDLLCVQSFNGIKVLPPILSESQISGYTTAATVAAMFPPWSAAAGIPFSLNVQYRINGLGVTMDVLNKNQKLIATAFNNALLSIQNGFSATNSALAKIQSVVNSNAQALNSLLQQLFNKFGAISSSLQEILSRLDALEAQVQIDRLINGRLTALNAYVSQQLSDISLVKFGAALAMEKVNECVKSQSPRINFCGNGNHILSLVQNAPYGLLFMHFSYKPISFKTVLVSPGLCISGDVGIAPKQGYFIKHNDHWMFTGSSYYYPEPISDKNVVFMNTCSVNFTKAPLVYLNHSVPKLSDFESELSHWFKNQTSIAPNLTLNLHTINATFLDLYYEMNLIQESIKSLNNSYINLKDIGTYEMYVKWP

[2] = biological target: T2, MERS-CoV (London1/2012) prefusion-stabilized spike (S) protein / S ectodomain trimer (MERS-CoV (London1/2012), UniProt K9N5Q8 18-1296)
T2 sequence: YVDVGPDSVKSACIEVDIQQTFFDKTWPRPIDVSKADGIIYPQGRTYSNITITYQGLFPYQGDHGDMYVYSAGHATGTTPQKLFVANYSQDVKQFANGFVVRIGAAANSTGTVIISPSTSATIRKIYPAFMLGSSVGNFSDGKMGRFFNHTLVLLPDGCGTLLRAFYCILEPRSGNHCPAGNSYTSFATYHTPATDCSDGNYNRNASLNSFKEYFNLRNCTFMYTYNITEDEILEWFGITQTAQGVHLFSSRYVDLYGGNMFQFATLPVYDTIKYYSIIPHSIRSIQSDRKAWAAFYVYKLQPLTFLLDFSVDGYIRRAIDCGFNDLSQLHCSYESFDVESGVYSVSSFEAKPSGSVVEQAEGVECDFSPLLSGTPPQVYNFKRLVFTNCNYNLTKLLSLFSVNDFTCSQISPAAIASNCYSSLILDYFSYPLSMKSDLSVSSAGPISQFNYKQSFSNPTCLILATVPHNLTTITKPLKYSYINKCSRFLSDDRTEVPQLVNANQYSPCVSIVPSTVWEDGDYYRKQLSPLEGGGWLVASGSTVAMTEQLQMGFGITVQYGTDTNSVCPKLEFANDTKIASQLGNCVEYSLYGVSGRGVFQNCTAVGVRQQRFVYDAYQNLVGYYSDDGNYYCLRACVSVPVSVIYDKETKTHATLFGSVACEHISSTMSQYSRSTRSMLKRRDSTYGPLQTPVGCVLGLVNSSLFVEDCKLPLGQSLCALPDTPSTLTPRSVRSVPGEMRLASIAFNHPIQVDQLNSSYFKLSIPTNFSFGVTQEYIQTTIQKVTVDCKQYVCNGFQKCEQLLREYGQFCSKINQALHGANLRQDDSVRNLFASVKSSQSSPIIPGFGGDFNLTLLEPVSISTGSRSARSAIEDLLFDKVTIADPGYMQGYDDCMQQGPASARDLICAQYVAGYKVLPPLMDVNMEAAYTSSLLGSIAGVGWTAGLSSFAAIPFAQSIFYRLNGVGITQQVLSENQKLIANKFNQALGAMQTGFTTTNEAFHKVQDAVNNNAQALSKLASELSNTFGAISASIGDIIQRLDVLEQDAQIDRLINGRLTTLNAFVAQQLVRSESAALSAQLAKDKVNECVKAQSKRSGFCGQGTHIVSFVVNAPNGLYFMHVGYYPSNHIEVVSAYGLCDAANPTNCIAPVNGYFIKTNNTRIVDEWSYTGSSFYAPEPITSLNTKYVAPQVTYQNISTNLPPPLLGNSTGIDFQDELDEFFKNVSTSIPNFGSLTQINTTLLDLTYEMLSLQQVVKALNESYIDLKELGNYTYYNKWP

[3] = biological target: SARS-CoV (Urbani strain) prefusion-stabilized spike (S) protein / S ectodomain trimer (SARS-CoV (Urbani strain), UniProt P59594 14-1195); assay: SPR (Biacore T200), S ectodomain trimer captured, Fab as analyte

B1: S2P6 Fab fragment (Fab, V domains shown)
VH: EVQLVQSGAEVKKPGASVKVSCKASGYTFTSQYMHWVRQAPGQGLEWIGIINPSGVHTSYAQKFQGRVTLTRDTSTSTLYMELSSLRSEDTAVYYCARGSPKGAFDYWGQGTLVTVSS
VL: not shown
Q: With B1 as the binder, how does the Kd [1] read?
A: The Kd was about 120 nM.

Q: What about the Kd [2] of the same binder?
A: Its Kd is 12 nM.

Q: What about the Kd [3] of the same binder?
A: Its Kd is 7 nM.
